What was measured:
[1] = target: dynactin (bovine (purified from bovine brain))
[2] = target: human cytoplasmic dynein (recombinant complex of DHC, DIC, DLIC, Tctex, Robl and LC8) (human) (UniProt Q14204)

B1: full-length Drosophila Bicaudal D F684I mutant (Dm BicD/F684I) (natural protein)
chain: MSSASNNGPSADQSVQDLQMEVERLTRELDQVSSASAQSAQYGLSLLEEKSALQQKCEELETLYDNTRHELDITQEALTKFQTSQKVTNKTGIEQEDALLNESAARETSLNLQIFDLENELKQLRHELERVRNERDRMLQENSDFGRDKSDSEADRLRLKSELKDLKFRETRMLSEYSELEEENISLQKQVSSLRSSQVEFEGAKHEIRRLTEEVELLNQQVDELANLKKIAEKQMEEALETLQGEREAKYALKKELDGHLNRESMYHISNLAYSIRSNMEDNASNNSDGEEENLALKRLEADLSTELKSPDGTKCDLFSEIHLNELKKLEKQLESMESEKTHLTANLREAQTSLDKSQNELQNFMSRLALLAAHVDALVQLKKQIDVKEQGKEGGQKKDELEQQLRALISQYANWFTLSAKEIDGLKTDIAELQKGLNYTDATTTLRNEVTNLKNKLLATEQKSLDLQSDVQTLTHISQNAGQSLGSARSTLVALSDDLAQLYHLVCTVNGETPTRVLLDHKTDDMSFENDSLTAIQSQFKSDVFIAKPQIVEDLQGLADSVEIKKYVDTVSDQIKYLKTAVEHTIDMNKHKIRSEGGDALEKVNTEEMEELQEQIVKLKSLLSVKREQIGTLRNVLKSNKQTAEVALTNLKSKYENEKIIVSDTMSKLRNELRLLKEDAATISSLRAMFAARCEEYVTQVDDLNRQLEAAEEEKKTLNQLLRLAVQQKLALTQRLEEMEMDREMRHVRRPMPAQRGTSGKSSFSTRPSSRNPASSNANPF
[1]
  processive run length of DDB^F684I on microtubules, single molecule TIRF: 3.3 µm
  speed of DDB^F684I on microtubules, single molecule TIRF: 0.43 µm/s
[2]
  processive run length of DDB^F684I on microtubules, single molecule TIRF: 3.3 µm
  speed of DDB^F684I on microtubules, single molecule TIRF: 0.43 µm/s

From publication doi:10.1101/776187
